Source: PMC2709974 (Journal of molecular biology, 2009)
Numbering of substitutions follows the chain as printed. Names may count otherwise.

T1: IscR-C92A/C98A/C104A (clusterless) (Escherichia coli, UniProt P0AGK8 1-162, C92A;C98A;C104A)
T1 sequence: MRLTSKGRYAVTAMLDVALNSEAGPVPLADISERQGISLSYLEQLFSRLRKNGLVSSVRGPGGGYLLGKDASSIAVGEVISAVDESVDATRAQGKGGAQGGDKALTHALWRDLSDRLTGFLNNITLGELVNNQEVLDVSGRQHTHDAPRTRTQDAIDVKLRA

T2: IscR wild-type (as purified, about 60% [2Fe-2S] occupied) (Escherichia coli, UniProt P0AGK8 1-162)
T2 sequence: T1 sequence with A92C, A98C, A104C

B1: hyaA site, labeled 30-mer (dsDNA)
DNA 1: ATAAATCCACACAGTTTGTATTGTTTTGTG
DNA 2: CACAAAACAATACAAACTGTGTGGATTTAT
B2: wild-type IscR (as purified, 35% occupied with [2Fe-2S] cluster) (natural protein, Escherichia coli, UniProt P0AGK8 1-162, looked up)
chain: T1 sequence with A92C, A98C, A104C
B3: apo-IscR (generated from wild-type IscR by treatment with 2,2'-dipyridyl) (natural protein, Escherichia coli, UniProt P0AGK8 1-162, looked up)
chain: T1 sequence with A92C, A98C, A104C
B4: randomized hya site, labeled 30-mer (dsDNA)
DNA 1: ATCATCCGTCTTATGTTAATTATAATGGTG
DNA 2: CACCATTATAATTAACATAAGACGGATGAT
B5: IscR-C92A/C98A/C104A (natural protein, Escherichia coli, UniProt P0AGK8 1-162, looked up)
chain: T1 sequence
B6: Palindrome1 (dsDNA)
DNA 1: ATAAATACATACAGTTTGTATGTATTTGTG
DNA 2: CACAAATACATACAAACTGTATGTATTTAT
B7: hya -40 (dsDNA)
DNA 1: B1 DNA 1 with G18C
DNA 2: B1 DNA 2 with C13G
B8: hya -42 (dsDNA)
DNA 1: B1 DNA 1 with T16A
DNA 2: B1 DNA 2 with A15T
B9: hya -49 (dsDNA)
DNA 1: B1 DNA 1 with A9T
DNA 2: B1 DNA 2 with T22A
B10: hyaA competitor (dsDNA)
DNA 1: B1 DNA 1
DNA 2: B1 DNA 2
B11: hya -48(C to T) (dsDNA)
DNA 1: B1 DNA 1 with C10T
DNA 2: B1 DNA 2 with G21A
B12: hya -51 (dsDNA)
DNA 1: B1 DNA 1 with C7G
DNA 2: B1 DNA 2 with G24C
B13: hya -53,-52 (dsDNA)
DNA 1: B1 DNA 1 with A5T, T6C
DNA 2: B1 DNA 2 with A25G, T26A
B14: hya -31 (dsDNA)
DNA 1: B1 DNA 1 with T27G
DNA 2: B1 DNA 2 with A4C
B15: hya -44,-43 (dsDNA)
DNA 1: B1 DNA 1 with G14T, T15G
DNA 2: B1 DNA 2 with A16C, C17A
B16: hya -46 (dsDNA)
DNA 1: B1 DNA 1 with C12T
DNA 2: B1 DNA 2 with G19A
B17: hya -55 (A to C) (dsDNA)
DNA 1: B1 DNA 1 with A3C
DNA 2: B1 DNA 2 with T28G
B18: hya -36(T to C) (dsDNA)
DNA 1: B1 DNA 1 with T22C
DNA 2: B1 DNA 2 with A9G
B19: hya -47 (dsDNA)
DNA 1: B1 DNA 1 with A11T
DNA 2: B1 DNA 2 with T20A
B20: hya -44,-42,-41,-40 (dsDNA)
DNA 1: ATAAATCCACACATTGGTTATTGTTTTGTG
DNA 2: CACAAAACAATAACCAATGTGTGGATTTAT
B21: hya -42,-41 (dsDNA)
DNA 1: B1 DNA 1 with T16G, T17G
DNA 2: B20 DNA 2 with A13C, A17C
B22: hya -32,-30 (dsDNA)
DNA 1: B1 DNA 1 with T26A, G28C
DNA 2: B1 DNA 2 with C3G, A5T
B23: hya -50(C to A) (dsDNA)
DNA 1: B1 DNA 1 with C8A
DNA 2: B1 DNA 2 with G23T
B24: hya -35 (dsDNA)
DNA 1: B1 DNA 1 with G23T
DNA 2: B1 DNA 2 with C8A
B25: hya -34/33 (dsDNA)
DNA 1: B1 DNA 1 with T24A, T25A
DNA 2: B1 DNA 2 with A6T, A7T
B26: hya -36(T to G) (dsDNA)
DNA 1: B1 DNA 1 with T22G
DNA 2: B1 DNA 2 with A9C
B27: Palindrome1-2 (dsDNA)
DNA 1: B6 DNA 1 with A7C, T23G
DNA 2: B6 DNA 2 with A8C, T24G
B28: hya -41 (dsDNA)
DNA 1: B1 DNA 1 with T17A
DNA 2: B1 DNA 2 with A14T
B29: hya -39 (dsDNA)
DNA 1: B1 DNA 1 with T19A
DNA 2: B1 DNA 2 with A12T
B30: hya -54,-48,-45,-37 (dsDNA)
DNA 1: ATATATCCAGACTGTTTGTAATGTTTTGTG
DNA 2: CACAAAACATTACAAACAGTCTGGATATAT
B31: hya -36(T to A) (dsDNA)
DNA 1: B1 DNA 1 with T22A
DNA 2: B1 DNA 2 with A9T

Each binder was assayed against T1, IscR-C92A/C98A/C104A (clusterless) (assay: fluorescence anisotropy).

Row | Binder | Kd
1 | B1 | 44 ± 3 nM

The binders below were run against T2, IscR wild-type (as purified, about 60% …) (assay: fluorescence anisotropy).

Row | Binder | Kd
2 | B1 | 34 ± 2 nM

Target: the molecule itself
Assay: SEC

Row | Binder | stoichiometry N
3 | B2 | 2
4 | B3 | 2

Target: T1, IscR-C92A/C98A/C104A (clusterless)
Assay: fluorescence anisotropy
Remark: another data set of the same source

Row | Binder | binding result
5 | B4 | no binding

Target: the molecule itself
Assay: AUC

Row | Binder | stoichiometry N
6 | B5 | 2

Target: T2, IscR wild-type (as purified, about 60% …)
Assay: fluorescence anisotropy
Remark: another data set of the same source

Row | Binder | binding result
7 | B4 | no binding

These binders were tested against T1, IscR-C92A/C98A/C104A (clusterless) (assay: competition).

Row | Binder | IC50
8 | B6 | 202 nM
9 | B7 | 39 nM
10 | B8 | 73 nM
11 | B9 | 44 nM
12 | B10 | 29 nM
13 | B11 | 48 nM
14 | B12 | 400 nM
15 | B13 | 33 nM
16 | B14 | 263 nM
17 | B15 | 89 nM
18 | B16 | 37 nM
19 | B17 | 394 nM
20 | B18 | 134 nM
21 | B19 | 190 nM
22 | B20 | 785 nM
23 | B21 | 300 nM
24 | B22 | 18 nM
25 | B23 | 268 nM
26 | B24 | 505 nM
27 | B25 | 39 nM
28 | B26 | 16 nM
29 | B27 | ~10 nM
30 | B28 | 34 nM
31 | B29 | 199 nM
32 | B30 | 80 nM
33 | B31 | 52 nM
